The target in the assay is T1, human CGRP receptor (CRLR + RAMP1) (human, UniProt Q16602 23-461; O60894 27-148).
T1 construct: also called hCGRP R; huCGRP R
The experiment in a line: FACS staining of transfected cells.

T1 sequence (Q16602 23-461 limits assumed, chain 1 of 2): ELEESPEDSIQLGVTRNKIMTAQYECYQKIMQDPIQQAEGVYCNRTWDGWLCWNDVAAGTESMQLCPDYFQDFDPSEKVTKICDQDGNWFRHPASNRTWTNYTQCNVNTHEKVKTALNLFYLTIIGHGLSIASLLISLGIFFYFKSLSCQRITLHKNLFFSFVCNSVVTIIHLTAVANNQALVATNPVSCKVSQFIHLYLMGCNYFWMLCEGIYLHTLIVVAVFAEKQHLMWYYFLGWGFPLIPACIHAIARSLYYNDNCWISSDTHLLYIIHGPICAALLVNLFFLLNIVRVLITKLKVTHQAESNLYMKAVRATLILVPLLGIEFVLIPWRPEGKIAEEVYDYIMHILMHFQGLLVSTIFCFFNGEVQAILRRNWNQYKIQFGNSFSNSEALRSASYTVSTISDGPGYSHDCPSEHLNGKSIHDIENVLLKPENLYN
T1 sequence (O60894 27-148 limits assumed, chain 2 of 2): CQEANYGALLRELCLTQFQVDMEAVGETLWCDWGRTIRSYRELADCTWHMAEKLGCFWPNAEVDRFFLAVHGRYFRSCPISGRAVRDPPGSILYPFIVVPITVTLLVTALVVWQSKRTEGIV

On to Ac-WVTHRLAGLLSRSGGVVRCNFVPTDVGPFAF-NH2 (also: Alexa 647 label, site not given here, also called Alexa647-CGRP8-37) [Alexa 647-labeled CGRP8-37 peptide analog], for which the binding result is reported as “binds”.

The values above are taken from patent publication US20130071410A1 (published 2013).
